Results reported in patent US20070066800A1, “Apo2l(trail) receptor binding peptides and uses thereof” (priority 2003, published 2007).

biological target: Human DR5-ECD long form polypeptide (human); experiment: phage competition ELISA (Comp/DR5 ECD); conditions: not given

| IC50 [nM] | Molecule |
| --- | --- |
| 9.8 | GEVCLTSCSALR (phage-displayed) [R10A] |
| 23.5 | GEVCLTECSKLR (displayed on phage) [LB959] |
| 11.8 | GEVCLTECSKLT (phage-displayed) [LB963] |
| 39.2 | EVCMTSCEKLMSAL (phage-displayed) [LB845] |
| 29400 | EVCMTSCEKLM (phage-displayed) [LB848] |
| 23.5 | GEVCLTLCSRLT (displayed on phage) [LB953] |
| 424 | GEVCLTLCSKLR (displayed on phage) [LB952] |
| 149 | RLPGEVCLTSCERLL (phage-displayed) [871-4-S3] |
| 35.3 | GEVCLTLCSKLT (displayed on phage) [LB956] |
| 49 | CVAMTTCDKLRECMAI (phage-displayed) [2Hd7-3] |
| 6.9 | CVAMTTCEKLRLCQSL (phage-displayed) [2Hd7-7] |
| 49 | EVCMTSCEKLMSA (displayed on phage) [LB846] |
| 17.6 | GEVCLTECSRLT (phage-displayed) [LB960] |
| 735 | EVCMTSCEKLMS (displayed on phage) [LB847] |
| 11.9 | GEVCLTSCDRLR (phage-displayed) [LB937] |
| 19.6 | CVAMTSCEKLRSCLLL (displayed on phage) [2Hd7-2] |
| 79.1 | EVCMTSCEKLMSALSL (phage-displayed) [2H9-13] |

| IC50 [nM] | Molecule |
| --- | --- |
| 9 | GEVCLTSCERIR (displayed on phage) [LB936] |
| 29 | CVAMTSCDKLRLCQLL (phage-displayed) [2Hd7-20] |
| 11.9 | GEVCLTSCSRIR (displayed on phage) [LB938] |
| 4.9 | CVAMTTCSKLRQCLSA (phage-displayed) [2Hd7-1] |
| 167 | VEAGEVCLTLCEKLM (phage-displayed) [3H857-13] |
| 23.8 | GEVCLTTCSRIR (phage-displayed) [LB933] |
| 14.9 | GEVCLTSCERLR (phage-displayed) [LB882] |
| 83.3 | FEQGEVCMTLCEKLM (phage-displayed) [3H858-1] |
| 3 | GEVCLTLCSRLR (phage-displayed) [LB934] |
| 23.5 | GRVCLTLCSKLR (phage-displayed) [LB954] |
| 78.4 | EVCMTSCDRLKQAFLL (phage-displayed) [2H9-15] |
| 29.4 | QEVCMTSCDKLMKANWMAAM (phage-displayed) [LB867] |
| 4.5 | GEVCLTMCSRLR (displayed on phage) [LB935] |
| 12.7 | GEVCLTSCARLR (phage-displayed) [S9A] |
| 14.9 | ESRGEVCLTSCERLR (phage-displayed) [871-31-S3] |
| 9.8 | GEACLTSCSRLR (phage-displayed) [V3A] |

biological target: T1, Hu DR5 ECD (SEQ ID NO: 105) (Homo sapiens, UniProt O14763, A67V/E190F/V191A); experiment: Phage competition Ic50 ELISA (phagemid binding assay), competitor DR5 ECD; conditions: Positive clones, competitor DR5 ECD (Comp/DR5 EcD)
T1 construct: Human DR5-ECD long form polypeptide
Protocol: The Apo-2L receptor binding peptides disclosed herein were identified from the bacteriophage peptide library constructs shown in Tables I and II using the following phagemid binding assay.
1. Coat microtiter plate wells with 80 ul of 1 ug/ml Apo-2L receptor DR5 ECD (SEQ ID NO: 105) (in 50 mM sodium carbonate pH 9.6) at 4° C. overnight.
2. Remove coat and block with 200 ul PBS/0.1% BSA. Incubate 1 hour at room temperature.
3. Prepare competing receptor solutions (100 ul/sample).
Dispense SOul binding buffer to row H through B in a new non-sticky 96-well plate.
Dispense 75 ul competing receptor solution to row A.
Make 3-fold serial dilutions by transferring 25 ul solution along columns except for row H (use fresh tip set for each transfer).
4. Prepare appropriate subsaturating phage dilution (predetermined from phage dilution series).
Transfer 50 ul of phage diluent to each microtiter well of the non-sticky plate. Start at row H then G,F,E,D,C,B,A respectively.
Incubate at R.T. for 2 hours.
5. Shake block off plate which has been coated with DR5 ECD (SEQ ID NO: 105) and rinse 10 times with PBS+0.05% tween 20.
6. Transfer 80 ul the mixture of competing receptor and phage from the non-sticky plate to DR5 ECD coated plate and incubate 20 minutes at room temperature.
7. Make a 1:5000 dilution of HRP conjugate anti-M13 monoclonal Ab (Amersham Pharmacia Biotech) into binding buffer.
Rinse plate 10 times with PBS/tween20 (be thorough here to remove vast excess of non displaying phage).
Add 80 ul of Ab diluent to row H through A.
8. Mix TMB peroxidase substrate and peroxidase solution B at equal volume.
Rinse plate 10 times with PBS/tween20.
Add 80 ul of substrate to row H through A.
Incubate as required to develop and stop with 80 ul 2.5M H2SO4.
A number of bacteriophage clones expressing peptides of interest were generated using the above methods and then purified using limiting dilution. In order to further characterize specific clones of interest (e.g. to determine Ic 50 values), phage clones were grown and then purified using a polyethylene glycol based method as described in Sidhu et al., Methods Enzymol. 328, 333-363 (2000). Alternative methods for generating and purifying bacteriophages are also known in the art. See, e.g. Current Protocols In Molecular Biology, Volume 1, Units 1, 5 and 6, Frederick M. Ausubel et al. eds., 1995.
Phage clones identified using the above methods were grown and then purified using the following polyethylene glycol based method. Briefly, a bacterial culture infected with a phage clone of interest is grown under conditions favorable to phage growth and then centrifuged for 10 min at 2° C. and 16,000 g. The supernatant is then transferred to a fresh centrifuge tube and a 1/5 volume of PEG-NaCl (PEG 8000 (200 g/L), NaCl (146 g/L), autoclaved) is added. The mixture is then incubated for 5 minutes at room temperature. The mixture is then centrifuged as above and the supernatant decanted. The supernatant is then respun briefly and the remaining supernatant removed. The phage pellet is then resuspended in 1/20 volume of PBS (or other analogous buffer). Insoluble matter is then pelleted by centrifugation. The supernatant containing the purified phage is saved and used in assays such as Ic 50 and Ec 50 assays that are described in the following examples.
In the Tables provided herein, “Ic 50” refers to the measure of the concentration of peptide needed to inhibit 50% of Apo-2L (e.g. amino acids 114 to 281 of SEQ ID NO: 1) binding to an Apo-2L receptor molecule (e.g. DR4-IgG (SEQ ID NO: 108) or DR5 ECD (SEQ ID NO: 105) etc.). The peptides are classified such that class 1-class 4 represent a, b, c, and d respectively.

| IC50 [nM] | Molecule |
| --- | --- |
| > 100 | LB932 (GEVCLSSCSRLR) |
| 78.4 | Hd5-10: first generation (G1) peptide lead, SEQ ID NO: 14 (NVDQECMTTCTRLRECQLLL) |
| 9.8 | G1A (AEVCLTSCSRLR) [Peptide G1A] |
| > 100 | LB939 (GEVCLTSCSRVR) |
| 11.2 | 930-S8-4 (AVGEVCLTECSRLIQR) [Peptide 930-S8-4] |
| 4.9 | 2Hd7-1 (CVAMTTCSKLRQCLSA) [Peptide 2Hd7-1] |
| 49 | E2A (GAVCLTSCSRLR) [Peptide E2A] |
| 29 | 2Hd7-20 (CVAMTSCDKLRLCQLL) [Peptide 2Hd7-20] |
| 167 | 3H857-13 (VEAGEVCLTLCEKLM) [Peptide 3H857-13] |
| 66.7 | 3H858-2 (IRVGEVCMTTCEKLM) [Peptide 3H858-2] |
| > 100 | LB931 (GEVCMTSCSRLR) |
| 23.8 | LB933 (GEVCLTTCSRIR) |
| > 100 | LB940 (GEVCLTSCSRLK) |
| 14.9 | 871-31-S3 (ESRGEVCLTSCERLR) [Peptide 871-31-S3] |
| 19.6 | 2Hd7-2 (CVAMTSCEKLRSCLLL) [Peptide 2Hd7-2] |
| 49 | 2Hd7-3 (CVAMTTCDKLRECMAI) [Peptide 2Hd7-3] |
| 78.4 | 2H9-15 (EVCMTSCDRLKQAFLL) [Peptide 2H9-15] |
| 9 | LB936 (GEVCLTSCERIR) |
| 14.9 | LB882 (GEVCLTSCERLR) |

biological target: Human DR5-ECD long form polypeptide (human); experiment: phage competition ELISA, cross-reactivity; conditions: not given

| IC50 [nM] | Molecule |
| --- | --- |
| 23.5 | GEVCLTECSKLR (displayed on phage) [LB959] |
| 11.8 | GEVCLTECSKLT (phage-displayed) [LB963] |
| 23.5 | GEVCLTLCSRLT (displayed on phage) [LB953] |
| 424 | GEVCLTLCSKLR (displayed on phage) [LB952] |
| 35.3 | GEVCLTLCSKLT (displayed on phage) [LB956] |
| 17.6 | GEVCLTECSRLT (phage-displayed) [LB960] |
| 23.5 | GRVCLTLCSKLR (phage-displayed) [LB954] |

system: Apo-2L.0 and DR5; experiment: IC50; conditions: not given
From the text: Table printed on a drawing sheet, FIG._4C
Title: Step 3: Truncation Scan
The patent's description of the figure: FIGS. 4A-4D provide illustrations of the protocols used to modify Apo-2L receptor binding peptides.
Where the first naming reader finds the target: passage: inhibit the interaction between Apo-2L.0 (amino acids 114 to 281 of SEQ ID NO: 1) and DR5 (SEQ ID NOs: 105 and 109)

| IC50 [nM] | Molecule |
| --- | --- |
| 79 | EVCMTSCEKLMSALSL |
| 2940 | EVCMTSCEKLM [C1-11*] |
| 39 | EVCMTSCEKLMSAL [C1-14] |
| 49 | EVCMTSCEKLMSA [C1-13] |
